A short description of series [1]: folding stability dG unfold from trypsin proteolysis; higher = more stable. A digest of the protocol: (§1)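 How resistant each design was to proteolysis was captured as K50, inferred by Bayesian fitting of sequencing counts. Unfolding free energy was then derived relative to a sequence-predicted unfolded-state K50 and a shared folded-state K50, per protease or combined. Digestion used trypsin and chymotrypsin at 11 threefold-diluted concentrations plus a no-protease condition, on mini-proteins under 80 residues without cysteine in a PA-tagged cDNA display construct. Designs were kept only when AlphaFold2 dimer inter-PAE was above 15.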

Series [2] in a line: folding stability dG unfold from chymotrypsin proteolysis; higher = more stable. The procedure, abridged: as §1
A short description of series [3]: folding stability dG unfold (combined trypsin and chymotrypsin); higher = more stable. The procedure, abridged:
as §1

± gives the half width of the 95% confidence interval.

The source of these data is the supplement of paper PMC12764529.

“SAGGSAGGSAGREIADEIKDILQEKGFEIKDIEVTRPPNGYPMVEITVRHDNGKKWTIWISAGGSAGGSAGG [r11_780_TrROS]”: the “folding stability dG unfold” value worked out at 6.27 ± 0.159 kJ/mol in series [1], 7.98 ± 0.397 kJ/mol in series [2] and 7.35 ± 0.414 kJ/mol in series [3].

Consider “SAGGSAGGSAGRLLLEGLGADEVLRLEPEPDRVPIVVRHRDGGRDVVIEMDFEEAVRAILSAGGSAGGSAGG [r11_630_TrMRF]”, for which the “folding stability dG unfold” value is -5.12 ± 2.8 kJ/mol in series [1], -2.25 ± 1.17 kJ/mol in series [2] and -3.22 ± 1.76 kJ/mol in series [3].

For “SAGGSAGGSAGRVEKIVSNLKPLGYEVLSVEETEDYVLAVVYDPFTDEPRVFRFPKDSPFSAGGSAGGSAGG [r11_428_TrMRF]”, the figures for the “folding stability dG unfold” value in series [1], in series [2] and in series [3] were 5.31 ± 0.0711 kJ/mol, 4.93 ± 0.544 kJ/mol and 5.9 ± 0.46 kJ/mol, respectively.

Consider “SAGGSAGGSAGRVVKITLPDGSSLDIDVPADDDLTKEEIEARLTVPPGEKVSIKSIEILEESAGGSAGGSAG [r3_465_JUSTAS]”, for which the results for the “folding stability dG unfold” value in series [1], in series [2] and in series [3] were 0.196 ± 0.155 kJ/mol, 3.76 ± 0.138 kJ/mol and 2.63 ± 0.356 kJ/mol, respectively.

As for “SAGGSAGGSAGSETYYIKIGDKLYTVTVEPDSITVKYPETSEEKTFSSSLPGISLEEILSSAGGSAGGSAGG [r11_648_JUSTAS]”, the results for the “folding stability dG unfold” value in series [1], in series [2] and in series [3] were 6.81 ± 0.172 kJ/mol, 7.02 ± 0.226 kJ/mol and 7.15 ± 0.272 kJ/mol, respectively.

Turning to “SAGGSAGGSAGSFLIVVRFPNSTVLFDAPEDTDVDALKKAIKKLFNADIEVEVVPKEKPLSAGGSAGGSAGG [r11_805_TrMRF]”, the figures for the “folding stability dG unfold” value in series [1], in series [2] and in series [3] were 7.31 ± 0.243 kJ/mol, 6.5 ± 0.213 kJ/mol and 7.5 ± 0.389 kJ/mol, respectively.

“SAGGSAGGSAGSFTVLVTEVLDPDDPLYLKLQKELGLPPENIVRFKLYTFSSPEEVKKKISAGGSAGGSAGG [r11_83_TrMRF]”: the “folding stability dG unfold” value in series [1] stood at 3.86 ± 0.146 kJ/mol; in series [2], 8.32 ± 0.544 kJ/mol; in series [3], 6.27 ± 0.272 kJ/mol.

For “SAGGSAGGSAGSISRTATPDGYLYTFTDSSGKTHTIPSPVPGMPLSEVAERARAAGFSTVESSAGGSAGGSA [r18_83_JUSTAS]”, the “folding stability dG unfold” value in series [1] is -0.788 ± 0.502 kJ/mol; in series [2], 4.05 ± 0.272 kJ/mol; in series [3], 2.58 ± 0.335 kJ/mol.

In the case of “SAGGSAGGSAGSKKAVIGGDGATVTYYPPLGYALVTFPDGTAALVDLKTGEIVEIAKTNDSAGGSAGGSAGG [r11_149_TrMRF]”, the “folding stability dG unfold” value turned out to be 4.36 ± 0.247 kJ/mol in series [1], 9.58 ± 0.155 kJ/mol in series [2] and 8.37 ± 0.46 kJ/mol in series [3].

“SAGGSAGGSAGSLTLVSTSSDETEEPVVRYREVYAGPVPVRVTAEESLENPGNPRLRVVLSAGGSAGGSAGG [r11_618_JUSTAS]”: the “folding stability dG unfold” value in series [1] is -2.22 ± 0.92 kJ/mol; in series [2] it was -1.15 ± 1.63 kJ/mol; in series [3], -1.05 ± 0.586 kJ/mol.

“SAGGSAGGSAGSMEEALAAELRARGGVAVEIERIHVPSELAPGTKLPADEVLIRVTARPAASAGGSAGGSAG [r3_229_JUSTAS]”: the “folding stability dG unfold” value was -0.58 ± 1.92 kJ/mol in series [1], 2.86 ± 0.502 kJ/mol in series [2] and 2.2 ± 0.711 kJ/mol in series [3].

With “SAGGSAGGSAGSMKTLVTTETSTVPGTTTTVTTTTTTTYDPTSSETTTTTTPVTNPAPAASAGGSAGGSAGG [r17_309_JUSTAS]”, the “folding stability dG unfold” value in series [1] is -3.46 ± 1.17 kJ/mol; in series [2] it was 4.37 ± 0.0837 kJ/mol; in series [3] it was 2.97 ± 0.297 kJ/mol.

For the sequence “SAGGSAGGSAGSMQTEVTFERGPGRLTTTTTTKFPDNRWSTTTSTSPVPARPPLPPAPVLLSAGGSAGGSAG [r3_68_JUSTAS]”, the “folding stability dG unfold” value was -3.42 ± 2.18 kJ/mol in series [1], -2.96 ± 3.93 kJ/mol in series [2] and -1.74 ± 0.92 kJ/mol in series [3].

As for “SAGGSAGGSAGSMSTPRSSEKMEKDGGGETLVRTLTYPEPSLTRTVRTPPDGSSSSSTSAPSAGGSAGGSAG [r3_28_JUSTAS]”, the “folding stability dG unfold” value in series [1] is -1.89 ± 1.55 kJ/mol; in series [2], 2.26 ± 0.46 kJ/mol; in series [3], 0.985 ± 0.837 kJ/mol.

For “SAGGSAGGSAGSMTITRTLPGLTVTFTRLPDPNKETITFKLGDKWTTVPASTLSSSVISLSAGGSAGGSAGG [r11_152_JUSTAS]”, the “folding stability dG unfold” value is -1.82 ± 1.59 kJ/mol in series [1], -0.594 ± 1.42 kJ/mol in series [2] and -0.586 ± 0.879 kJ/mol in series [3].

In the case of “SAGGSAGGSAGSMVSVEVEESELPPPYRLVTEKVSLPGSETVIEVVRDPATGEVLETKVFASSAGGSAGGSA [r18_507_JUSTAS]”, the figures for the “folding stability dG unfold” value in series [1], in series [2] and in series [3] were 15.8 ± 1.17 kJ/mol, 13.9 ± 1.05 kJ/mol and 14.1 ± 2.47 kJ/mol, respectively.

For the sequence “SAGGSAGGSAGSMVTKTTTVEEKIGPGNLKLVKEKITIYDPSTGKPIKEETKITIEPVLLSAGGSAGGSAGG [r17_317_JUSTAS]”, the “folding stability dG unfold” value was -2.06 ± 0.669 kJ/mol in series [1], 1.89 ± 1 kJ/mol in series [2] and 0.62 ± 1.59 kJ/mol in series [3].

Turning to “SAGGSAGGSAGSPLEEALAEARATGGPVTIRLPDGSEVVITVTEDEGELRVEVRSAAELGSAGGSAGGSAGG [r17_463_JUSTAS]”, the “folding stability dG unfold” value in series [1] worked out at 4.14 ± 0.113 kJ/mol; in series [2], 3.81 ± 0.176 kJ/mol; in series [3], 4.19 ± 0.414 kJ/mol.
